In US10266566 (NORTH CAROLINA STATE UNIVERSITY, dated 2019):
*1 amine or outer side, *2 acyl side, *3 side chain or, on linkers, in order; H or OH if unused. Where no end group is shown, it is not given here. [ ]: non-standard residue; d: D form. Tyr(Me) = O-methyl-tyrosine, COc1ccc(C[C@H](N[*:1])C(=O)[*:2])cc1; Trp(1-Me) = Cn1cc(C[C@H](N)C(=O)O)c2ccccc21; Phe(4-Me) = Cc1ccc(C[C@H](N)C(=O)O)cc1; Lys(Me2) = CN(C)CCCC[C@H](N)C(=O)O; Cit = NC(=O)NCCC[C@H](N)C(=O)O

Experiments:
[1] = molecular target: T1, albumin (human, UniProt P02768 25-609); test: SDS-PAGE of fractions eluted from peptide resin loaded with Cohn fraction II+III
T1 construct: Impurity in the Cohn fraction II+III feed, seen on SDS-PAGE of the eluted fractions
T1 sequence (P02768 25-609 limits assumed): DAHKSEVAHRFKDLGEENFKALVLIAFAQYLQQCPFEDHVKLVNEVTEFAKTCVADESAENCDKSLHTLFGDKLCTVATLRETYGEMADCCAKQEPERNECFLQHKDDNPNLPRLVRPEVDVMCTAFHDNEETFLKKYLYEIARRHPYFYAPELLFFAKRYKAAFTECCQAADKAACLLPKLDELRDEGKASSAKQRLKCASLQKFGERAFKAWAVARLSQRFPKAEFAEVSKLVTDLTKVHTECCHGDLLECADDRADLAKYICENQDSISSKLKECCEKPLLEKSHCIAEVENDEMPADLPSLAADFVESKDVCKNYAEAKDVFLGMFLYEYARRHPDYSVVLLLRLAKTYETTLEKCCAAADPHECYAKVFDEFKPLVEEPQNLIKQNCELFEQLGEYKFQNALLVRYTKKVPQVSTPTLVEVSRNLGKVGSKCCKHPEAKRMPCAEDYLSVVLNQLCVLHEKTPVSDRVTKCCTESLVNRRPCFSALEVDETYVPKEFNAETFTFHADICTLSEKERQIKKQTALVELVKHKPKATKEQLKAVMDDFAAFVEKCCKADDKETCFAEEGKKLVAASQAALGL

[2] = molecular target: T2, Human polyclonal immunoglobulin G (IgG) (human); test: affinity chromatography, peptide resin, 10 mg/mL hIgG in PBS; 2nd run, after resin contacted with alpha-chymotrypsin
T2 construct: also called hIgG; IVIG

[3] = molecular target: T2, Human polyclonal immunoglobulin G (IgG); test: affinity chromatography, peptide on Toyopearl resin, pure human IgG load; yield = IgG eluted/IgG loaded, by Protein G chromatography
[4] = molecular target: T2, Human polyclonal immunoglobulin G (IgG); test: affinity chromatography, peptide resin, 10 mg/mL hIgG in PBS; 1st run, before any enzyme
[5] = molecular target: T2, Human polyclonal immunoglobulin G (IgG); test: affinity chromatography of Cohn fraction II+III of human plasma on peptide resin; binding PBS + 0.25M NaCl, elution acetate pH 5.0; yield by Protein G chromatography
[6] = molecular target: T2, Human polyclonal immunoglobulin G (IgG); test: affinity chromatography, peptide resin, 10 mg/mL hIgG in PBS; 3rd run, after alpha-chymotrypsin and then trypsin
[7] = molecular target: T2, Human polyclonal immunoglobulin G (IgG); test: affinity chromatography of Cohn fraction II+III on peptide resin; binding buffer PBS + 0M NaCl
[8] = molecular target: T1, albumin; test: SDS-PAGE of fractions from peptide resin loaded with Cohn fraction II+III at different NaCl
[9] = molecular target: T2, Human polyclonal immunoglobulin G (IgG); test: affinity chromatography of Cohn fraction II+III on peptide resin; binding buffer PBS + 0.13M NaCl
[10] = molecular target: T2, Human polyclonal immunoglobulin G (IgG); test: affinity chromatography of Cohn fraction II+III on peptide resin; binding buffer PBS + 0.25M NaCl

| Binder | binding result [1] | IgG yield [2] | IgG yield [3] | IgG yield [4] | IgG yield [5] | IgG yield [6] | IgG yield [7] | binding result [8] | IgG yield [9] | IgG yield [10] |
| --- | --- | --- | --- | --- | --- | --- | --- | --- | --- | --- |
| HFRRHL-{Toyopearl AF‑Amino‑650M resin} (Synthetic hexapeptide on Toyopearl resin; also called HFRRHL-Toyopearl) | binds | 78% | 93% | 93% | 91% | 54% | – | – | – | – |
| Ac-H[Trp(1-Me)][Cit]G[Trp(1-Me)]V-{Toyopearl AF‑Amino‑650M resin} (Acetylated HWMetCitGWMetV on Toyopearl resin; also called Ac-HWMetCitGWMetV-Toyopearl) [Ac-HWMetCitGWMetV] | – | – | – | – | – | – | 91% | binds | 93% | 94% |
| HWRGWV-{Toyopearl AF‑Amino‑650M resin} (not fully specified, Synthetic hexapeptide made directly on Toyopearl AF-Amino-650M resin after a first Fmoc-Ala-OH coupling, about 0.12 meq/g; also called HWRGWV-Toyopearl; original peptide ligand) | binds | 72% | 95% | 95% | 85% | 36% | 90% | – | 85% | 85% |
| H[Trp(1-Me)][Cit]G[Trp(1-Me)]V-{Toyopearl AF‑Amino‑650M resin} (Variant of HWRGWV on Toyopearl resin; also called HWMetCitGWMetV-Toyopearl) [HWMetCitGWMetV] | binds | 91% | 90% | 90% | 91% | 90% | 89% | – | 90% | 91% |

Next, values leading:

| binding result [1] | IgG yield [2] | IgG yield [3] | IgG yield [4] | IgG yield [5] | IgG yield [6] | IgG yield [7] | binding result [8] | IgG yield [9] | IgG yield [10] | Binder |
| --- | --- | --- | --- | --- | --- | --- | --- | --- | --- | --- |
| binds | 49% | 42% | 52% | 48% | 53% | – | – | – | – | H[Tyr(Me)][Phe(4-Me)][Lys(Me2)][Phe(4-Me)]D-{Toyopearl AF‑Amino‑650M resin} (Variant of HYFKFD on Toyopearl resin, used as a negative control; also called HYMetFMetK(Met)2FMetD-Toyopearl) [HYMetFMetKMet2FMetD] |
| binds | 92% | 90% | 90% | 89% | 91% | – | – | – | – | H[Phe(4-Me)][Cit][Cit]HL-{Toyopearl AF‑Amino‑650M resin} (Variant of HFRRHL on Toyopearl resin; also called HFMetCitCitHL-Toyopearl) [HFMetCitCitHL] |
| binds | 76% | 78% | 78% | 54% | 71% | – | – | – | – | HYFKFD-{Toyopearl AF‑Amino‑650M resin} (Synthetic hexapeptide on Toyopearl resin; also called HYFKFD-Toyopearl) |
